According to patent US20220364142:

T1: Consensus peptide P2R (EVRALEEA) (not fully specified)
T1 chain: EVRALEEA

T2: Consensus peptide P4'P (EVKALEEP) (not fully specified)
T2 chain: EVKALEEP

T3: Consensus peptide P3GP1'V (EGKAVLEA) (not fully specified)
T3 chain: EGKAVLEA

T4: Consensus peptide P4'A (EVKALEEA) (not fully specified)
T4 chain: EVKALEEA

T5: DABCYL-TPLKSPPPSPR-EDANS (Calpain Substrate III; Calbiochem)
T5 chain: TPLKSPPPSPR

T6: PR1478 peptide
T6 chain: WRQNRGGGCINH

T7: PR1476 peptide
T7 chain: RQNRGGGCINH


How the values were obtained:
[1] = molecular target: T1, Consensus peptide P2R (EVRALEEA)
[2] = molecular target: T2, Consensus peptide P4'P (EVKALEEP)
[3] = molecular target: T3, Consensus peptide P3GP1'V (EGKAVLEA)
[4] = molecular target: T4, Consensus peptide P4'A (EVKALEEA)
[5] = molecular target: T5, DABCYL-TPLKSPPPSPR-EDANS (Calpain …)
[6] = molecular target: T6, PR1478 peptide
[7] = molecular target: T7, PR1476 peptide

| Protein | catalytic efficiency (kcat/Km) [1] [vs. 7 M^-1s^-1] | hydrolysis of consensus FRET peptide [1] | substrate turnover (kcat) [1] | hydrolysis of consensus FRET peptide [2] | hydrolysis of consensus FRET peptide [3] | hydrolysis of consensus FRET peptide [4] | hydrolysis of FRET substrate (EDANS signal) [5] | proteolytic cleavage of FRET peptide substrate (EDANS fluorescence) [6] | substrate quality compared with PR1476 [6] | catalytic efficiency (kcat/Km) [7] [vs. 7 M^-1s^-1] | proteolytic cleavage of FRET peptide substrate (EDANS fluorescence) [7] |
| --- | --- | --- | --- | --- | --- | --- | --- | --- | --- | --- | --- |
| CAPN5-G267S protease core domain (protein) MFSCVKPYEDQNYSALRRDCRRRKVLFEDPLFPATDDSLYYKGTPGPAVRWKRPKGICEDPRLFVDGISSHDLHQGQVGNCWFVAACSSLASRESLWQKVIPDWKEQEWDPEKPNAYAGIFHFHFWRFGEWVDVVIDDRLPTVNNQLIYCHSNSRNEFWCALVEKAYAKLAGCYQALDGGNTADALVDFTGGVSEPIDLTEGDFANDETKRNQLFERMLKVHSRGGLISASIKAVTAADMEARLACGLVKGHAYAVTDVRKVRLGHSLLAFFKSEKLDMIRLRNPWGEREWNGPWSDTSEEWQKVSKSEREKMGVTVQDDGEFWMTFEDVCRYFTDIIKCRVI | 11 | These substrates were hydrolyzed by 1.6 µM CAPN5-PC p.G267S in the presence of 10 mM Ca^2+ | The observed substrate turnover (kcat) of these consensus peptides indicated that peptide P2R is preferred by CAPN5-PC and suggests a preference for arginine in the P2 subsite | These substrates were hydrolyzed by 1.6 µM CAPN5-PC p.G267S in the presence of 10 mM Ca^2+ | These substrates were hydrolyzed by 1.6 µM CAPN5-PC p.G267S in the presence of 10 mM Ca^2+ | These substrates were hydrolyzed by 1.6 µM CAPN5-PC p.G267S in the presence of 10 mM Ca^2+ | DABCYL-TPLKSPPPSPR (SEQ ID NO:3)-EDANS (Calpain Substrate III; Calbiochem; 40 µM) hydrolysis by 50 nM CAPN5-G267S protease core domain |  |  |  |  |
| Calpain-5 protease core domain (CAPN5-PC) (protein) MFSCVKPYEDQNYSALRRDCRRRKVLFEDPLFPATDDSLYYKGTPGPAVRWKRPKGICEDPRLFVDGISSHDLHQGQVGNCWFVAACSSLASRESLWQKVIPDWKEQEWDPEKPNAYAGIFHFHFWRFGEWVDVVIDDRLPTVNNQLIYCHSNSRNEFWCALVEKAYAKLAGCYQALDGGNTADALVDFTGGVSEPIDLTEGDFANDETKRNQLFERMLKVHSRGGLISASIKAVTAADMEARLACGLVKGHAYAVTDVRKVRLGHGLLAFFKSEKLDMIRLRNPWGEREWNGPWSDTSEEWQKVSKSEREKMGVTVQDDGEFWMTFEDVCRYFTDIIKCRVI |  |  |  |  |  |  |  | PR1478 also displays activity in a CAPN5 dose-dependent manner | a tryptophan was added to the N-terminus of PR1476, which makes PR1478 a better substrate for CAPN5 | 11 | PR1476 displays activity in a CAPN5 dose-dependent manner |
